This assay addresses T1, NPM-4C (binding peptide 2-NPM fusion protein).
T1 construct: Self-assembling nanoparticle protein expressed in E. coli; also called particle protein component; VLP carrier NPM-4C
The experiment in a line: covalent binding reaction (4T/4C) with NPM-4C at 22 °C for 24 h, SEC purification, SDS-PAGE.

B1: RD012-1 (fHBP V3 domain 1-fHBP V1 domain 2-(G)-fHBP V1 domain 1-fHBP V2 domain 2-(GSG)2-4T-His) (other)
chain: SSGSGSGGGGVAADIGTGLADALTAPLDHKDKGLKSLTLEDSISQNGTLTLSAQGAEKTFKVGDKDNSLNTGKLKNDKISRFDFVQKIEVDGQTITLASGEFQIYKQDHSAVVALQIEKINNPDKIDSLINQRSFLVSGLGGEHTSFDKLPKDVMATYRGTAFGSDDAGGKLTYTIDFAAKQGHGKIEHLKSPELNVDLAVAYIKPDEKHHAVISGSVLYNQDEKGSYSLGIFGEKAQEVAGSAEVETANGIHHIGLAAKQGSSGGGGSGGGGVTADIGTGLADALTAPLDHKDKGLKSLTLEDSISQNGTLTLSAQGAEKTYGNGDSLNTGKLKNDKVSRFDFIRQIEVDGQLITLESGEFQVYKQSHSALTALQTEQEQDPEHSEKMVAKRRFRIGDIAGEHTAFNQLPDGKAEYHGKAFSSDDAGGKLTYTIDFAAKQGHGKIEHLKTPEQNVELAAAELKADEKSHAVILGDTRYGSEEKGTYHLALFGDRAQEIAGSATVKIGEKVHEIGIAGKQGSGGSGAHIVMVDAYKPTKHHHHHH
notes: Expressed in E. coli BL21(DE3), purified by His-trap and SEC; also called RD012-1 fusion protein; MenB antigen
For the molecule B1, the binding result is on record as “binds”.

B2: RD012-2 (fHBP V3 domain 1-fHBP V1 domain 2-fHBP V1 domain 1T1-fHBP V2 domain 2-(GSG)2-4T-His) (other)
chain: SSGSGSGGGGVAADIGTGLADALTAPLDHKDKGLKSLTLEDSISQNGTLTLSAQGAEKTFKVGDKDNSLNTGKLKNDKISRFDFVQKIEVDGQTITLASGEFQIYKQDHSAVVALQIEKINNPDKIDSLINQRSFLVSGLGGEHTSFDKLPKDVMATYRGTAFGSDDAGGKLTYTIDFAAKQGHGKIEHLKSPELNVDLAVAYIKPDEKHHAVISGSVLYNQDEKGSYSLGIFGEKAQEVAGSAEVETANGIHHIGLAAKQGSGGGGVTADIGTGLADALTAPLDHKDKGLKSLTLEDSISQNGTLTLSAQGAEKTYGNGDSLNTGKLKNDKVSRFDFIRQIEVDGQLITLESGEFQVYKQSHSALTALQTEQEQDPEHSEKMVAKRRFRIGDIAGEHTAFNQLPDGKAEYHGKAFSSDDAGGKLTYTIDFAAKQGHGKIEHLKTPEQNVELAAAELKADEKSHAVILGDTRYGSEEKGTYHLALFGDRAQEIAGSATVKIGEKVHEIGIAGKQGSGGSGAHIVMVDAYKPTKHHHHHH
notes: Expressed in E. coli BL21(DE3), purified by His-trap and SEC; also called RD012-2 fusion protein; MenB antigen
B2: the binding result is listed as “binds”.

The values are drawn from patent EP4803550A1 (Yantai Patronus Biotech Co., Ltd., dated 2026).
